In US20100221248A1 (MIT, published 2010):
Where a chain is given by its changes, count along the chain named.

T1: human FcγRIIB, soluble (human, UniProt P31994 43-217, limits assumed)
T1 construct: also called hFcγRIIB
T1 sequence (looked up): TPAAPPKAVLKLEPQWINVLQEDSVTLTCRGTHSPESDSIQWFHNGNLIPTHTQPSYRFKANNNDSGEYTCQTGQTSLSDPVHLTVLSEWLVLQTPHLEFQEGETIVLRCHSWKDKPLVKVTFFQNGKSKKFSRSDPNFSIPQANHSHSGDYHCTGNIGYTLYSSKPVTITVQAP

T2: human FcγRIIA, 131R allele, soluble (human, UniProt P12318 34-217, limits assumed)
T2 construct: also called hFcγRIIA
T2 sequence (looked up): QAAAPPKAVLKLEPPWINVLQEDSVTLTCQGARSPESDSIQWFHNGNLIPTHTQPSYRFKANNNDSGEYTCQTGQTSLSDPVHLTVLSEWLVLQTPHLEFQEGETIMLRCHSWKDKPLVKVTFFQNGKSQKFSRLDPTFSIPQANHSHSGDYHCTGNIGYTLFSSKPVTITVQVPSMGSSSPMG

T3: human FcγRIIA, 131H allele, soluble (human, UniProt P12318 34-217, limits assumed)
T3 construct: also called hFcγRIIA
T3 sequence (looked up): T2 sequence (looked up) with R134H

B1: MBP-IIA726 (designed binder)
chain: LGENLYFQSVSDVPGDLEVVAATPTSLLISWCTHLHWDYYRIFYGETGGNSPVQEFTVPALCPGATISGLKPGVDYTITAYAVTVGGDDWPISINYRTEIDEPSQ
notes: Fn3 domain as a C-terminal fusion to MBP; It was first expressed in Rosetta(DE3), then in Rosetta-gami 2 to promote the disulfide bond between the BC and DE loops; For PBMC labelling it was biotinylated and complexed with streptavidin-PE; also called MBP fusion of IIA726; not shown: limits and vector linker not stat
B2: MBP-IIA827 (designed binder)
chain: B1 chain with I92S
notes: Produced in Rosetta-gami 2; not shown: limits and vector linker not stat
B3: MBP-IIIA537 (designed binder)
chain: LGENLYFQSVSDVPRDLEVVVATPTSLLINWDLPFSDSYRITYGETGGNSPVQGFTVPGTESIATISGLKPGVDYTITVYAVASSGSNSYPISINYRTEIDKPSQ
notes: Fn3 domain as a C-terminal fusion to MBP, expressed in E. coli Rosetta(DE3); For PBMC labelling it was biotinylated and complexed with streptavidin-PE; also called MBP fusion of IIIA537; not shown: limits and vector linker not stat
B4: MBP-IIIA626 (designed binder)
chain: B3 chain with L33M, T42A, G54E, E61D, I63L, A83T
notes: Fn3 domain as a C-terminal fusion to MBP, expressed in E. coli Rosetta(DE3); For PBMC labelling it was biotinylated and complexed with streptavidin-PE; also called MBP fusion of IIIA626; not shown: limits and vector linker not stat
B5: IIA726 (mutant Fn3 domain, yeast surface-displayed clone) (designed binder)
chain: VSDVPGDLEVVAATPTSLLISWCTHLHWDYYRIFYGETGGNSPVQEFTVPALCPGATISGLKPGVDYTITAYAVTVGGDDWPISINYRTEIDEPSQ
notes: It contains a pair of Cys residues in the BC and DE loops; also called yeast surface-displaying IIA726
B6: IIA827 (mutant Fn3 domain, yeast surface-displayed clone) (designed binder)
chain: B5 chain with I83S
notes: Derived from IIA726 by a single mutation, printed '188S'; also called clone IIA827

Tests used:
human FcγRIIB, soluble = target: T1, human FcγRIIB, soluble; assay: SPR (Biacore T100), MBP-Fn3 immobilized, soluble FcR injected
Experimental: (§1) Surface Plasmon Resonance Analysis. Steady state affinity measurements were performed on a Biacore T100 biosensor. MBP-Fn3 fusion proteins were immobilized to CM5 sensor chips (Biacore) by standard amine coupling. […] Dissociation constants were calculated after subtraction of background binding to a control flow cell using Biacore T100 Evaluation software.

[1] = target: T2, human FcγRIIA, 131R allele, soluble; assay: SPR (Biacore T100), steady state, MBP-Fn3 immobilized, soluble FcR injected
Experimental: as §1

[2] = target: T3, human FcγRIIA, 131H allele, soluble; assay: as above
Experimental: as §1

[3] = target: T2, human FcγRIIA, 131R allele, soluble; assay: SPR (Biacore T100), MBP-Fn3 immobilized, soluble FcR injected
Experimental: as §1

[4] = target: T3, human FcγRIIA, 131H allele, soluble; assay: as above
Experimental: as §1

[5] = target: T4, human FcγRIIIA on the surface of human peripheral blood mononuclear cells (non-lymphocyte gate) (human, UniProt P08637 17-254); assay: flow cytometry of human PBMCs with biotinylated MBP-Fn3 complexed to streptavidin-PE
T4 construct: whole, on cells; The target is inferred from the stated aim of the experiment, which was recognition of FcRs expressed on cell surfaces; also called RIIIA on PBMCs
From the text: To determine whether the Fn3 domains were able to recognize FcRs expressed on cell surfaces, each MBP-Fn3 fusion protein was biotinylated, complexed with streptavidin-PE and used to label human peripheral blood mononuclear cells (PBMCs).

[6] = target: T5, RIIB tetramer (biotinylated human FcγRIIB complexed to streptavidin-PE) (human, UniProt P31994 43-217; P22629 37-163, limits assumed, PE conjugate; singly biotinylated); assay: flow cytometry titration of yeast surface-displayed IIA726 with streptavidin-PE RIIB tetramer, 2 h at room temperature
T5 construct: Biotinylated FcR incubated with streptavidin-PE at a 4:1 molar ratio; also called PE-tagged RIIB tetramer
Experimental: (§2) The yeast cells were washed and analyzed by flow cytometry.
(§3) Characterization of Individual Clones. Plasmid DNA was recovered from the later library generations (Zymoprep II kit) and transformed into competent DH5a bacteria (Invitrogen). Individual colonies (usually ten) were grown, miniprepped, and sequenced, as well as re-transformed into EBY100 yeast (EZ Yeast Transformation Kit, Zymo Research). The resulting clones were cultured in SD-CAA and induced in SG-CAA for analysis. To rapidly compare different clones, 0.1 OD.ml aliquots of yeast were labeled with a low and a high concentration of PE-tagged RIIA (1 nM, 30 nM) or RIIIA (0.3 nM, 10 nM) tetramer for 1 hour at RT prior to flow cytometry (Coulter Epics XL). The apparent tetramer Kd was estimated from the ratio of the two mean fluorescence readings. […] The labeling volumes (in PBSA) were chosen to give at least a 10-fold excess of FcR over Fn3. The yeast cells were centrifuged and washed with 0.5 ml PBSA for analysis by flow cytometry. The Kd value was determined by fitting the data to the equation y=A[tetramer]/([tetramer]+Kd)+B.

[7] = target: T6, RIIA131R tetramer (biotinylated human FcγRIIA 131R complexed to streptavidin-PE) (human, UniProt P12318 34-217; P22629 37-163, limits assumed, PE conjugate; singly biotinylated); assay: yeast display titration with PE-tagged tetramer, flow cytometry; apparent (avid) Kd; parent clone IIA726 from the seventh FACS sort
T6 construct: Biotinylated FcR incubated with streptavidin-PE at a 4:1 molar ratio; Kd values measured against it are apparent (avid) values; also called RIIA tetramer; PE-tagged RIIA tetramer
Experimental: as §2, §3

[8] = target: T6, RIIA131R tetramer (biotinylated human …); assay: flow cytometry titration of yeast surface-displayed IIA726 with streptavidin-PE RIIA131R tetramer, 2 h at room temperature
Experimental: as §2, §3

[9] = target: T5, RIIB tetramer (biotinylated human …); assay: yeast display, flow cytometry with PE-tagged tetramer
[10] = target: T6, RIIA131R tetramer (biotinylated human …); assay: yeast display with PE-tagged tetramer, flow cytometry; apparent (avid) Kd; clone IIA827, IIA726 with the single mutation printed 188S
Experimental: as §3

T6 sequence (P22629 37-163 limits assumed, one chain of several): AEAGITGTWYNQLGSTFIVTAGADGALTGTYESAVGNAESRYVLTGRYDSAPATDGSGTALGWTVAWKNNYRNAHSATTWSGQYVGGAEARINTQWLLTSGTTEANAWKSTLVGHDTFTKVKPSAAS
T4 sequence (P08637 17-254): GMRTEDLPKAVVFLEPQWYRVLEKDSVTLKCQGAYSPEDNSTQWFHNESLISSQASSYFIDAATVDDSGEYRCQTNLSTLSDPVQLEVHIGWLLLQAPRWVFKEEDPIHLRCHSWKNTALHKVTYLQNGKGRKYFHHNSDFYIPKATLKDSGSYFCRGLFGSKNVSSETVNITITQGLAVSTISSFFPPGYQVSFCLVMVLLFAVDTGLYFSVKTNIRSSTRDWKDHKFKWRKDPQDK
T5 sequence (P22629 37-163 limits assumed, one chain of several): as the sequence (P22629 37-163 limits assumed, one chain of several) above

| Binder | binding result (human FcγRIIB, soluble) | binding result [3] | binding result [4] | binding result [5] | also measured |
| --- | --- | --- | --- | --- | --- |
| B1 | no binding | – | – | – | – |
| B2 | – | – | – | – | Kd [1]: 850 nM; Kd [2]: 6200 nM |
| B3 | no binding | no binding | no binding | binds | – |
| B4 | no binding | no binding | no binding | binds | – |
| B5 | – | – | – | – | binding result [6]: no binding (tested: 100 nM); Kd [7]: 1.2 nM; EC50 (read off the curve) [8]: ~1 nM |
| B6 | – | – | – | – | binding result [9]: no binding (tested: 100 nM); Kd [10]: 0.54 nM |
